Measurements from US20230265151A1, “GIP/GLP1 CO-AGONIST COMPOUNDS” (priority 2020, published 2023).
Substitutions are numbered along the chain they refer to.

B1: Y-Aib-EGT-αMeF(2F)-TSD-4Pal-SI-αMeL-LD-Orn-K((2-[2-(2-Amino-ethoxy)-ethoxy]-acetyl)2-(γ-Glu)-CO-(CH2)12-CO2H)AQ-Aib-EFI-(D-Glu)-αMeY-LIEGK((2-[2-(2-Amino-ethoxy … (peptide)
peptide: YXEGTXTSDXSIXLDXKAQXEFIXXLIEGKPSSGAPPPS
modifications: Aib2, αMeF(2F)6, 4Pal10, αMeL13, Orn16, K17(Z1), Aib20, D-Glu24, αMeY25, K30(Z1), C-term NH2; Z1=AEEA2-(γ-Glu)-CO-(CH2)12-CO2H
B2: Y-Aib-EGT-αMeF(2F)-TSD-4Pal-SI-αMeL-LD-Orn-K((2-[2-(2-Amino-ethoxy)-ethoxy]-acetyl)2-(γ-Glu)-CO-(CH2)10-CH3)AQ-Aib-EFI-(D-Glu)-αMeY-LIK((2-[2-(2-Amino-ethoxy)-e … (peptide)
peptide: B1 peptide with E28K, K30G
modifications: Aib2, αMeF(2F)6, 4Pal10, αMeL13, Orn16, K17(Z1), Aib20, D-Glu24, αMeY25, K28(Z1), C-term NH2; Z1=AEEA2-(γ-Glu)-CO-(CH2)10-CH3
B3: Example 146 (peptide)
peptide: B1 peptide with K30G, P31K
modifications: Aib2, αMeF(2F)6, 3TA10, αMeL13, Orn16, Aib20, D-Glu24, αMeY25, K17 and K31: K(AEEA2-(γ-Glu)-CO-(CH2)12-CO2H), C-terminal NH2
B4: Example 18 (peptide)
peptide: B1 peptide
modifications: Aib2, αMeF(2F)6, 4Pal10, αMeL13, Orn16, Aib20, D-Glu24, αMeY25, K17 and K30: K(AEEA2-(γ-Glu)-CO-(CH2)12-CO2H), C-terminal NH2
B5: Example 150 (peptide)
peptide: B1 peptide with E21X, K30G, P31K
modifications: Aib2, αMeF(2F)6, 4Pal10, αMeL13, Orn16, Aib20, Orn21, D-Glu24, αMeY25, K17 and K31: K(AEEA2-(γ-Glu)-CO-(CH2)12-CO2H), C-terminal NH2
B6: Example 149 (peptide)
peptide: B1 peptide with K30G, P31K
modifications: Aib2, αMeF(2F)6, 4Pal10, αMeL13, Orn16, Orn20, D-Glu24, αMeY25, K17 and K31: K(AEEA2-(γ-Glu)-CO-(CH2)12-CO2H), C-terminal NH2
B7: Example 151 (peptide)
peptide: B1 peptide with E28X, K30G, P31K
modifications: Aib2, αMeF(2F)6, 4Pal10, αMeL13, Orn16, Aib20, D-Glu24, αMeY25, Orn28, K17 and K31: K(AEEA2-(γ-Glu)-CO-(CH2)12-CO2H), C-terminal NH2
B8: Example 16 (peptide)
peptide: B1 peptide with X24K, K30G
modifications: Aib2, αMeF(2F)6, 4Pal10, αMeL13, Orn16, Aib20, αMeY25, K17 and K24: K(AEEA2-(γ-Glu)-CO-(CH2)12-CO2H), C-terminal NH2
B9: Example 148 (peptide)
peptide: B1 peptide with F22X, K30G, P31K
modifications: Aib2, αMeF(2F)6, 4Pal10, αMeL13, Orn16, Aib20, ChA22, D-Glu24, αMeY25, K17 and K31: K(AEEA2-(γ-Glu)-CO-(CH2)12-CO2H), C-terminal NH2
B10: Example 152 (peptide)
peptide: B1 peptide with K30X, P31K
modifications: Aib2, αMeF(2F)6, 4Pal10, αMeL13, Orn16, Aib20, D-Glu24, αMeY25, Orn30, K17 and K31: K(AEEA2-(γ-Glu)-CO-(CH2)12-CO2H), C-terminal NH2
B11: Example 147 (peptide)
peptide: B1 peptide with F22X, K30G, P31K
modifications: Aib2, αMeF(2F)6, 4Pal10, αMeL13, Orn16, Aib20, Bzt22, D-Glu24, αMeY25, K17 and K31: K(AEEA2-(γ-Glu)-CO-(CH2)12-CO2H), C-terminal NH2
B12: Example 17 (peptide)
peptide: B1 peptide with E28K, K30G
modifications: Aib2, αMeF(2F)6, 4Pal10, αMeL13, Orn16, Aib20, D-Glu24, αMeY25, K17 and K28: K(AEEA2-(γ-Glu)-CO-(CH2)12-CO2H), C-terminal NH2
B13: Example 15 (peptide)
peptide: B1 peptide with E21K, K30G
modifications: Aib2, αMeF(2F)6, 4Pal10, αMeL13, Orn16, Aib20, D-Glu24, αMeY25, K17 and K21: K(AEEA2-(γ-Glu)-CO-(CH2)12-CO2H), C-terminal NH2
B14: Example 154 (peptide)
peptide: B1 peptide with K30G, P31K, S39X
modifications: Aib2, αMeF(2F)6, 4Pal10, αMeL13, Orn16, Aib20, D-Glu24, αMeY25, Orn39, K17 and K31: K(AEEA2-(γ-Glu)-CO-(CH2)12-CO2H), C-terminal NH2

molecular target: T1, human GIP receptor (human, UniProt P48546 22-466); experiment: SPA competition vs [125I]-GIP, hGIPR membranes
T1 construct: whole, on cells; also called hGIPR; human glucose-dependent insulinotropic polypeptide receptor
T1 sequence (looked up): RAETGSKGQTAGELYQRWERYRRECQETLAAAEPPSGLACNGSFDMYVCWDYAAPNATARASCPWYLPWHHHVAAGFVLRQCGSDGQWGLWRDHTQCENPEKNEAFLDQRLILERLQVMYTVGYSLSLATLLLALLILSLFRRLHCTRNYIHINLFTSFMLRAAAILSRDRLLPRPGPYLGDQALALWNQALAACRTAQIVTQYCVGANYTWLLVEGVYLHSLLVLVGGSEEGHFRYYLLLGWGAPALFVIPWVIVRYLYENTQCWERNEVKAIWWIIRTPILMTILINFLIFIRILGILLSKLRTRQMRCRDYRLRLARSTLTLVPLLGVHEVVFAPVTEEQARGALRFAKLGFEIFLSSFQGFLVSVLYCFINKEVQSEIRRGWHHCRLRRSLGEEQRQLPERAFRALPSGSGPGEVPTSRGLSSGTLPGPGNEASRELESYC
Method: The binding buffer contains 25 mM HEPES, pH 7.4, 2.5 mM CaCl₂, 1 mM MgCl₂, 0.1% (w/v) bacitracin, 0.003% (w/v) TWEEN®-20, and Roche Complete™ Protease Inhibitors without EDTA. […] Plates are sealed and mixed on a plate shaker (setting 6) for 1 minute and read with a PerkinElmer Trilux MicroBeta® scintillation counter after 2.5 to 12 hours of incubation/settling time at room temperature.
(§1) Data are analyzed using four-parameter (curve maximum, curve minimum, IC₅₀, Hill slope) nonlinear regression routines (Genedata Screener, version 12.0.4, Genedata AG, Basal, Switzerland). […] Values for Kᵢ are reported as the geometric mean, with error expressed as the standard error of the mean (SEM) and n is equal to the number of independent replicates (determined in assays performed on different days). Geometric Means are calculated as follows: […]

Binder | Ki [nM]
B1 | 0.0769
B2 | 0.0415

molecular target: T2, human GIP receptor (human, UniProt P48546 22-466); experiment: cell-based or functional assay
T2 sequence (looked up): T1 sequence (looked up)

Binder | EC50, cAMP [nM] | Emax, cAMP [%]
B3 | 0.0198 | 76.5
B4 | 0.0226 | 97.1
B5 | 0.0268 | –
B6 | 0.0791 | –
B7 | 0.0197 | –
B8 | 0.0113 | –
B9 | 0.0209 | –
B10 | 0.0416 | 97.9
B11 | 0.0229 | –
B12 | 0.0129 | –
B13 | 0.0133 | –
B14 | 0.0299 | 96.6

molecular target: human GLP-1 receptor (human, UniProt P43220 24-463); experiment: cell-based or functional assay

Binder | EC50, cAMP [nM] | Emax, cAMP [%]
B3 | 0.688 | –
B4 | 5.06 | –
B5 | 0.455 | –
B6 | 1.5 | –
B7 | 0.546 | –
B8 | 0.245 | –
B9 | 1.77 | 94.5
B10 | 3.91 | –
B11 | 0.338 | 93.5
B12 | 1.57 | –
B13 | 0.995 | –
B14 | 1.69 | –

molecular target: human glucagon receptor (human, UniProt P47871 26-477); experiment: cell-based or functional assay

Binder | EC50, cAMP [nM]
B3 | > 9950
B4 | > 9950
B5 | > 9950
B6 | > 9950
B7 | > 9950
B8 | > 9950
B9 | > 9950
B10 | > 9950
B11 | > 9950
B12 | > 9950
B13 | > 9950
B14 | > 9950

molecular target: T3, human GLP-1 receptor (human, UniProt P43220 24-463); experiment: SPA competition vs [125I]-GLP-1, hGLP-1R membranes
T3 construct: whole, on cells; also called hGLP-1R; human glucagon-like peptide-1 receptor
Method: The binding buffer contains 25 mM HEPES, pH 7.4, 2.5 mM CaCl₂, 1 mM MgCl₂, 0.1% (w/v) bacitracin, 0.003% (w/v) TWEEN®-20, and Roche Complete™ Protease Inhibitors without EDTA.
as §1

Binder | Ki [nM]
B1 | 8.41
B2 | 0.268
